Measured values: publication PMC7614494

Key:
[1] = biological target: Mouse saposin A (mouse); test: crystal structure; SapA-PC preparation (100 mM citrate pH 4.0, 150 mM NaCl) mixed with acid ceramidase; sitting drops at 293 K, 23.25% PEG 3350, 0.1 M Bis-Tris pH 5.6; only SapA found in the crystal; 3.17 Å
[2] = biological target: Mouse saposin A (mouse); test: SEC-MALS; SapA after incubation with DDM-solubilised phosphatidylcholine (PC:SapA 30:1); Superdex 200 Increase 10/300 GL, 100 mM citrate pH 4.0, 150 mM NaCl, room temperature; protein conjugate analysis of three regions of a heterogeneous peak

stoichiometry N [1]: 4
stoichiometry N [2]: 3 to 4
Substance: Mouse saposin A (natural protein)
